Laboratory results from paper PMC11166458, “Caskin2 is a novel talin- and Abi1-binding protein that promotes cell motility” (Journal of Cell Science, 2024).
No end group written: not given here.

Biological target: talin-R7/R8 (residues 1358–1653) (mouse, UniProt P26039 1358-1653)
Experiment: MST; Atto488-labeled peptide at 50–200 nM, serial dilution of recombinant R7R8 talin; 20 mM Tris-HCl pH 7.5, 200 mM NaCl, 1 mM TCEP, 0.05% Tween-20; Monolith NT.115
Conditions: both partners purified

B1: Atto488-labeled Caskin2-LD peptide (peptide, UniProt Q8WXE0 1187-1202, looked up)
peptide: STMFDALADQLDAMLD
modifications: also: Atto488 label
notes: Caskin2 C-terminal LD motif peptide; limits 1187–1202 are printed for the Caskin2-LD peptide in the legend of the structure; The text names L1183 as a contact residue of the peptide, which lies outside 1187–1202; source: synthetic peptide (MPIB Core Facility)
A Kd of about 2700 nM was found for B1 in this work.
